The results in this text go back to the DeepSol protein solubility set.

The data set can be described thus: soluble on expression in E. coli; label from the status in PepcDB or PDB records.
For “MKRSNTVRLVVSKEQHEVLKRLGIATAKCWNEVNWLRMKQYKEGKRVDFGITEKAVYEKYKSVLRVNAQQVARKNAEDWRSFFSLTREKKEGKLPSWFKPRPPGYWKDGRLIVIIRNDRYTVDERNRVVYLKDFNLSLKFKGRLKWHGKQGRLEIIYDEARKIWYAHIPVEVETEKVKEGIKASIDLGIVNLATVYVEDGSWYLFKGGSALSHYENYSKRITIVQKTLHRHRQRRSRRLKLLHEKRSRFLKHALNSMVRRIMEILREKNVGEVVVGYPKEIAKHHGNKLTVNFWNYSYIIKRLEDIGEELGIKVITVDEAYTSKTCSLCGEAHEDGRVKRGLFVCPRTRKAINADLNGAINILHIPESRGSEGNFHRGIGVIGLKTQPVTLSDLSKIKNHYNYSISDYTILHYIQPLEHHHHHH”, the “soluble on expression in E. coli” value is recorded as “soluble”.
The entry for “MKRVISKILKKEKEKEEEVEEKTIGLIIDGPNILRKEFGIKLEDIKKALEKIGKIRVAKVVLNQYAPQGLIEAVVNQGFEPIIVAGDTDVRVAIEAMELIYNTDVDVIALATRDADFLPLISEAKRKGKETVVIGVEPGFSVALQNAADYIIKMEKKKEAEGY” is “soluble”; for “MKRYSTKHFKRILIANNVNIDIDLKTGIVAKNMAKKEKIEQVISMGGIMWEGLNSSLIKVDEALLKQQI” it is “soluble”.
Consider “MKSALSLLGERQQSLLTALLHHRKGLTVEELSSLLTISRNAVNQHLTHLGSSGFIQSALQESTGGRPGRVYTLTPNGLELFQRRYSFLAKLLLSWIDKNMGEHELDVCLTELGKEMASGLEHRLTQHTSRSDKLQEAITIMSELGYDTEIYRISENQAEIVANNCVFQELAQQHQEFCKLDISFLKHLLKADIEHTECIVRNGKYCRFRITSPDESGS”, for which the “soluble on expression in E. coli” value is “not soluble”.
The result for “MKSATSAQRPYQEVGAMIRDLIIKTPYNPGERLPPEREIAEMLDVTRTVVREALIMLEIKGLVEVRRGAGIYVLDNSGSQNTDSPDANVCNDAGPFELLQARQLLESNIAEFAALQATREDIVKMRQALQLEERELASSAPGSSESGDMQFHLAIAEATHNSMLVELFRQSWQWRENNPMWIQLHSHLDDSLYRKEWLGDHKQILAALIKKDARAAKLAMWQHLENVKQRLLEFSNVDDIYFDGYLFDSWPLDKVDA” reads “soluble”.
The entry for “MKSIVGVYETPQETIAAIEGLLTKGYDSDDISVVTSRRDTDYLESRTGTEVNQAIDAHQDESESFFDKLKDYFTMDDTATHSKALSDLDIKTDEIDKYQEDLDDGKLLVAVDTDADVIAPIDNGNALSGGFSSTNELDYTTKEEKTMPLREEQLKVDKEDVQTGEVEIGKEVKTEKRDMDIPVRHDEIYVERRPVDENKTDAAPVNDSEEIRVPIVEEKLEVTKKPVVTDEVVVGKRTVEENEHISETVKKEEPRLNKEGKVDGLDDDPLNNQMKIIDRQPKNLKSLEHHHHHH” is “soluble”.
The entry for “MKSKKILIVGAGFSGAVIGRQLAEKGHQVHIIDQRDHIGGNSYDARDSETNVMVHVYGPHIFHTDNETVWNYINKHAEMMPYVNRVKATVNGQVFSLPINLHTINQFFSKTCSPDEARALIAEKGDSTIADPQTFEEQALRFIGKELYEAFFKGYTIKQWGMQPSELPASILKRLPVRFNYDDNYFNHKFQGMPKCGYTQMIKSILNHENIKVDLQREFIVDERTHYDHVFYSGPLDAFYGYQYGRLGYRTLDFKKFIYQGDYQGCAVMNYCSVDVPYTRITEHKYFSPWEQHDGSVCYKEYSRACEENDIPYYPIRQMGEMALLEKYLSLAENETNITFVGRLGTYRYLDMDVTIAEALKTAEVYLNSLTDNQPMPVFTVSVGHHHHHH” is “soluble”; for “MKSLEEKTIAKEQIFSGKVIDLYVEDVELPNGKASKREIVKHPGAVAVLAVTDEGKIIMVKQFRKPLERTIVEIPAGKLEKGEEPEYTALRELEEETGYTAKKLTKITAFYTSPGFADEIVHVFLAEELSVLEEKRELDEDEFVEVMEVTLEDALKLVESREVYDAKTAYAIQYLQLKEALQAQK” it is “not soluble”; for “MKTALLLKTKSQPFDPYVEAFEKYGRDTAFIPVLRHKRVHEEQLRDKLKNVRKTYCGLIVTSQRVSETLDEALKQEDETERQKILMETPIFTVGPATDDSIRRLGFQQTHGKDCGRGEVLADLIEEWYTTTKQHKPLLFLVGEKHRDIIQRKLGDDRVDSLIVYATQELENTETQIKDTIRKHPTIDWIVAFSPTSICSLLNTFELKIATIGPTTGDYLKKLGTQPNVVSPAPNPESLASSIVAFDEENSS” it is “soluble”.
In the case of “MKTCYYELLGVETHASDLELKKAYRKKALQYHPDKNPDNVEEATQKFAVIRAAYEVLSDPQERAWYDSHKEQILNDTPPSTDDYYDYEVDATVTGVTTDELLLFFNSALYTKIDNSAAGIYQIAGKIFAKLAKDEILSGKRLGKFSEYQDDVFEQDINSIGYLKACDNFINKTDKLLYPLFGYSPTDYEYLKHFYKTWSAFNTLKSFSWKDEYMYSKNYDRRTKREVNRRNEKARQQARNEYNKTVKRFVVFIKKLDKRMKEGAKIAEEQRKLKEQQRKNELNNRRKFGNDNNDEEKFHLQSWQTVKEENWDELEKVYDNFGEFENSKNDKEGEVLIYECFICNKTFKSEKQLKNHINTKLHKKNMEEIRKEMEEENITLGLDNLSDLEKFDSADESVKEKEDIDLQALQAELAEIERKLAESSSEDESEDDNLNIEMDIEVEDVSSDENVHVNTKNKKKRKKKKKAKVDTETEESESFDDTKDKRSNELDDLLASLGDKGLQTDDDEDWSTKAKKKKGKQPKKNSKSTKSTPSLSTLPSSMSPTSAIEVCTTCGESFDSRNKLFNHVKIAGHAAVKNVVKRKKVKTKRI”, the “soluble on expression in E. coli” value is recorded as “not soluble”.
The entry for “MKTGYVLKGRVIDGTLGPALEQGAVVTEGERIAWVGPQSGLPAQYAGDRHTVVDLPGRTIMPGLIDAHTHISFGESRSEEENALYTPVEFRTAKALWYARKVLQAGVTSAFDAATSYNIAQAVRDAIDTGMFEGPRFTVSGKQLTNHHGLEDSFPNEMAFPPGQSAVLVKTREDLVEAIHYQVKDEVDAIKVSGSNDNLITPDALGSSAFTYEEFKIIADETHRLGRLCSVHARSRDAALYAAQAGFDNLFHASYIDDEGIEACLKNGCVITPTLTLLVNLVEAKQSHAGASSAQAFRQEIEAASVNLRRAYDAGVPLLAGSESGWSPVPYGHWHAREMEIFVKLLGLTPLQAIHANTLACTRLLARHGHEVGKLEASRLADVLVLPGNPLEDITLLQRPSRFDYIFKGGTPVDRTAPAPRVRKWYERTKIFLAGVYEYDQENACGRLVQ” is “not soluble”; for “MKTIHIYTNGRLEEKRGDIVREFPLVLQVNGREIATLIASPHDLRFLVAGFLRNQGFVESAADFHMLAVCDEFGIANVRIRQELPERLKPVLTSGCGTGITFTLETGGREAAVAPSPAVAPEAVFRLMEELARQADNYRNHGGIHSAAVGDGEGNLLLFAEDIGRHNTLDRIAGEALLKGIDLAGRILVTSGRVSTEMASKCARLGIALVASRTSATDMAATLCHEAGICLLGYVRGGKFTVYTHSDRLLVPEQAAASLPGPVPRGRIPGVTGVILAGGQSSRMGSNKALLPYRGGRFIESIHRQLSEYFDEVIVVTNTPEQYEFLPCRKVTDIHEGMGALAGIHAGLHHSSNPAAFVVACDMPYLNGDLIRHLASMADPGGVLIPESPTGLEPLHAVYGKGCLAAIEATLLSGQRRIVSFFGRTNVNRVNVAQIAAFDPEFNSFRNINTPTDYYRLREIERGEALPAPADERAGASALEHHHHHH” it is “not soluble”.
The result for “MKTIIREMVETIKQLFAQKQQMQEPVVANYEVSEIVEQKTLKKKEESEKTGEKTGKSNKWSQSLTLQLKEYLNDNFDFRYNNLTGATEYREKSGKNCFRPIDEREMNGMIVDARLEGIPCWRGDVPTMVLSNKVESYNPFHLYVKELPGWDGVDRVTPLLLRVSDNEIWLRGGRCWLRAMLSQWSGEERLHANVLTPVLISGKQGLSKSTFCRLLMPDSLRHYFIDNLNLAAGSSPEKKLVKNGLINLDEFDKIKESQQATLKNLLQMVNVPVFRGKRLGWVNESRLASFIATTNVYQVLIDSTGSRRFLCVEVLKPISEEPLEHKQIYAQLKEELKSGAPDYLNKEEEKALQKHNKAYYRQSLLEDVFHCCFRHPLETEKGIWLTTAEIFQVMRKFNSAALKEVSARQLGLKLSAMGYMAKHTSFGNRYYVFNLSAEKKDASL” reads “not soluble”; that for “MKTIKDWQINICLATYNGQKYLRQQLDSIIQQGYTDWICLIRDDGSTDDTVAIIKEYVNRDSRFIFINSNDDRKLGSHRSFYELVNYKKADFYVFSDQDDVWKENRLERYLEEAEKFNQELPLLVYSNWTSVDEKLTVLKEHNPATVIQEQIAFNQINGMVIMMNHELAKLWEYRQIGAHDSYVGTLAYAVGNVAYISDSTVLWRRQVGAESLNNYGRQYGVATFWQMINTSFDRASLIFAQVSDKMSLERKLFFSRFIELKNANLMRRIYLLSKLKLRRKSLKETVAMTILLLTGYGKPKALEHHHHHH”, “soluble”.
The entry for “MKTIRTEEAVGLPLSHDITRIDYGKTKEVCFKKGHIVVQEDIPILLSLGKKHLFVSLDPAEIHEEEAATFLYNLLTDDSCQPSEVHEGKIVAKASTRGLLKVNREKLIALNEIEGLALSTKVTNIEVQKDEKVAAFRVIPLTISKSQLEKARQLSTSEPLISVKPFKKIRVGIVTTGSEVYTGLVEDAFYPVLKAKFSAYPLVTIVKQEIVDDQPQKITVAIKKMLAQGVDLIVCTGGMSVDPDDLTPLAIKQTGAEIVTHGTPVLPGSMFLLAYKGEQTIIGLPGGVLFSEKTVFDLLLPRLMAKEVIKKSEIIDLSYGGYL” is “not soluble”; for “MKTKFYDYQGEHLILYFAGWGTPPDAVNHLILPENHDLLICYDYQDLNLDFDLSAYRHIRLVAWSMGVWVAERVLQGIRLKSATAVNGTGLPCDDSFGIPYAIFKGTLENLTENTRLKFERRICGDKASFERYQLFPARPFDEIHQELTALFAMIQQDKRIDLIHWANAWVSSRDKIFTPANQHQYWALRCAVQEIEGEHYVFSRFTHWSALWDH” it is “not soluble”; for “MKTKNKILHANCLQLGGKGLLIIGPSGSGKSTLTLSLLDRAGWSKREAKLISDDYTMLRVENGKLQGSTPEGLQGGIEIRGVGLYTIEFEKQTTIDCVILLGPEYERFSTNQTFKFADLHIPLLKLPSLHEADCTAICQAIEAFFFRKVWLKSV” it is “not soluble”.
Turning to “MKTPNAQEAEGQQTRAAAGRATGSANMTKKKVSQKKQRGRPSSQPRRNIVGCRISHGWKEGDEPITQWKGTVLDQVPINPSLYLVKYDGIDCVYGLELHRDERVLSLKILSDRVASSHISDANLANTIIGKAVEHMFEGEHGSKDEWRGMVLAQAPIMKAWFYITYEKDPVLYMYQLLDDYKEGDLRIMPESSESPPTEREPGGVVDGLIGKHVEYTKEDGSKRIGMVIHQVEAKPSVYFIKFDDDFHIYVYDLVKKS”, the “soluble on expression in E. coli” value is reported as “soluble”.
The result for “MKTRINYAKASPEAFKAVMALENYVQSSGLEHRFIHLIKLRASIINGCAFCVDMHVKESRHDGLSEQWINLMSVWRESPVYTEQERALLGWVDAVTKIAETGAPDDAFETLRAHFSDEEIVKITVAIGAINTWNRIAVGFRSQHPVEAAAKAA” reads “soluble”; that for “MKTSYDDTRQHLLDTGYRIMAVKGFSGVGLNEILQSAGVPKGSFYHYFKSKEQFGQALLEDYFRVYLADMDQRFSAPGLNARERLMSYWQKWLDNACPPCDEQRCLVVKLSAEVADLSESMRITLRDGSDGIIERLVGCLGQGRDDGSLAPCDARHMASALYQLWLGASLLSKLHRSPGPLETAMQTTRSLLEI”, “soluble”.
The entry for “MKTTTQELKQYITRLFQLSNNETWECEALEEAAENILPERFINNSLLAHLTLNTYTYYNDELHELSIYPFLMYANDQLISIGYLDHFDMDFLYLTDTKNTLIDERHLLKQGGNHHELEHHHHHH” is “soluble”.
